Kd data for one molecule are collected here from publication PMC3443816.

This data set has as its target T1, Cbf5 wild type;Nop10;Gar1 (in complex) (Pyrococcus furiosus;Pyrococcus …, UniProt Q7LWY0;Q8U1R4;Q8U029 1-340;1-60;=MG+2-104, ||internal_change).
T1 sequence 1: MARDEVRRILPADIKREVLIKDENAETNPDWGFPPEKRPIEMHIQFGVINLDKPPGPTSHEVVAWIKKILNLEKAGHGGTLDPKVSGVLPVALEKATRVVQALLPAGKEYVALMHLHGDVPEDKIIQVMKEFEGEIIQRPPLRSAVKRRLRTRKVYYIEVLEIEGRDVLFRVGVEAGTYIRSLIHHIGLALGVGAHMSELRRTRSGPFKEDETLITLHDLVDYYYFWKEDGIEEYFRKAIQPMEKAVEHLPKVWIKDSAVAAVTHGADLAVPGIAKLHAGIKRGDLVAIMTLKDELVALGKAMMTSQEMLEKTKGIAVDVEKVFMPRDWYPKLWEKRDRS
T1 sequence 2: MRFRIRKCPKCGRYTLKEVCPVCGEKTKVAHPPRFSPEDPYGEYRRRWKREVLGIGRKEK
T1 sequence 3: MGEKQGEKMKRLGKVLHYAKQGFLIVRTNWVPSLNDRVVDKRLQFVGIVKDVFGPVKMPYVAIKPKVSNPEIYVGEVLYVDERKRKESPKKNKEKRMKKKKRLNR
The data set is described as follows: filter binding.

B1: H/ACA guide RNA Pf4 (structured_RNA)
RNA: AAUGCCCCUCCCCUCUCACACCCCCGUGAGAAGUGAGCGGGGGGCGGUCGGGGAGGGGACAUCA
In the case of B1, the dissociation constant Kd (commonly a measure of binding affinity in units of concentration) was 21 ± 8 nM.
